From article PMC6779467, “Cytoplasmic protein misfolding titrates Hsp70 to activate nuclear Hsf1” (eLife, 2019)

B1: Hsf1-StrepTag II (natural protein, S. cerevisiae, UniProt P10961 1-833, looked up)
chain: MNNAANTGTTNESNVSDAPRIEPLPSLNDDDIEKILQPNDIFTTDRTDASTTSSTAIEDIINPSLDPQSAASPVPSSSFFHDSRKPSTSTHLVRRGTPLGIYQTNLYGHNSRENTNPNSTLLSSKLLAHPPVPYGQNPDLLQHAVYRAQPSSGTTNAQPRQTTRRYQSHKSRPAFVNKLWSMLNDDSNTKLIQWAEDGKSFIVTNREEFVHQILPKYFKHSNFASFVRQLNMYGWHKVQDVKSGSIQSSSDDKWQFENENFIRGREDLLEKIIRQKGSSNNHNSPSGNGNPANGSNIPLDNAAGSNNSNNNISSSNSFFNNGHLLQGKTLRLMNEANLGDKNDVTAILGELEQIKYNQIAISKDLLRINKDNELLWQENMMARERHRTQQQALEKMFRFLTSIVPHLDPKMIMDGLGDPKVNNEKLNSANNIGLNRDNTGTIDELKSNDSFINDDRNSFTNATTNARNNMSPNNDDNSIDTASTNTTNRKKNIDENIKNNNDIINDIIFNTNLANNLSNYNSNNNAGSPIRPYKQRYLLKNRANSSTSSENPSLTPFDIESNNDRKISEIPFDDEEEEETDFRPFTSRDPNNQTSENTFDPNRFTMLSDDDLKKDSHTNDNKHNESDLFWDNVHRNIDEQDARLQNLENMVHILSPGYPNKSFNNKTSSTNTNSNMESAVNVNSPGFNLQDYLTGESNSPNSVHSVPSNGSGSTPLPMPNDNDTEHASTSVNQGENGSGLTPFLTVDDHTLNDNNTSEGSTRVSPDIKFSATENTKVSDNLPSFNDHSYSTQADTAPENAKKRFVEEIPEPAIVEIQDPTEYNDHRLPKRAKK
notes: Hsf1, S. cerevisiae; HSF1 amplified with primers from the start codon to the last codon before the tag; also called Heat shock factor 1; yeast Hsf1; source: E. coli BL21-SI/pCodonPlus with pCA1026, coexpressed with 6xHis-SUMO-Ssa1 and Sis1; purified (Ni-IDA, Strep-Tactin Sepharose); not shown: Strep Tag II, C-terminal, kept

Experiments:
Hsf1-StrepTag II = target: B1; assay: pull-down; coexpression in E. coli; tandem affinity purification: Ni-IDA (6xHis-SUMO on Ssa1), Ulp1 cleavage, Strep-Tactin Sepharose (StrepTag II on Hsf1), elution with desthiobiotin; LWB150 (40 mM HEPES-KOH pH 7.5, 150 mM NaCl, 5 mM MgCl2, 5% glycerol); stoichiometry by densitometry of a Coomassie stained gel; details: partners not purified
[1] = target: the molecule itself; assay: SEC; 500 ul of 2 mg/ml purified complex on HiLoad 16/600 Superdex200 pg, 1 mL/min, LWB150

Row | stoichiometry N (Hsf1-StrepTag II) [Hsf1 per Ssa1] | Binder | binding result [1]
1 | 3 | Ssa1 (6xHis-SUMO tag cleaved with Ulp1) (natural protein, Hsp70 Ssa1, S. cerevisiae; Same construct as m2 after cleavage of the tag with Ulp1 SUMO protease; also called Hsp70; Hsp70 Ssa1; source: E. coli BL21-SI/pCodonPlus with pCA1026, coexpressed with Hsf1-StrepTag II and Sis1; purified (Ni-IDA, Ulp1 cleavage, Strep-Tactin Sepharose through Hsf1); not shown: 6xHis-SUMO, N-terminal, cleaved) not shown | –
2 | – | B1 | binds
